Results on one molecule are retold here after patent publication US12479895B2, “C-terminal CDNF and MANF fragments, pharmaceutical compositions comprising same and uses thereof” (MyNeuroCure Oy, priority 2018, dated 2025).

Data set [1] relates to rat model of cerebral ischemia. The data set can be described thus: Distal occlusion of the middle cerebral artery as a model of cerebral stroke. The format is in vivo. As for the experimental part:
Male Sprague Dawley rats (weight 230-270 g, Envigo, Netherlands) were used for the experiments which were conducted according to the 3R principles of EU directive 2010/63/EU on the care and use of experimental animals, local laws and regulations, and were approved by the national Animal Experiment Board of Finland All experiments were performed in a blinded manner and the rats were assigned to different treatment groups randomly. Rats were anesthesized with chloral hydrate (0.4 g/kg, i.p). A cortical stroke was induced by occluding the distal middle cerebral artery (dMCA) together with a bilateral common carotid artery (CCA) occlusion for 60 min as described previously (Chen, et al., 1986). Briefly, the bilateral CCAs were identified and isolated through a ventral midline cervical incision. Rats were placed in stereotaxic apparatus and a craniotomy was made in the right hemisphere. The right (MCA) was ligated with a 10-0 suture and bilateral common carotids (CCA) were ligated with non-traumatic arterial clamps for 60 minutes. […]
To test the neuroprotective effect of subcutaneous C-CDNF, 50 μg of C-CDNF was given 30-50 min before dMCA occlusion and immediately after reperfusion in volume of 100 μl s.c. Phosphate-buffered saline (PBS) was used as vehicle control. […] The area of infarction in each slice was measured with a digital scanner and ImageJ software. […]

Data set [2] relates to SOD1-G93A mouse ALS model. Briefly: SOD1-G93A mouse model of ALS. The format is in vivo. An excerpt: Transgenic SOD1 G93A mice served as a transgenic mouse model for ALS in this study. Transgenic mice containing various human SOD1 mutations develop progressive neurodegeneration and motoneuron (MN) death, providing an animal model that has been commonly used for preclinical trials and that has greatly contributed to the understanding of FALS pathogenesis (Gurney et al., 1994). […] In these mice hind limb weakness and tremulous movement appear as initial symptoms at 8-10 week of age, followed by major symptoms such as progressive motor paralysis and neurogenic amyotrophy (Shibata 2001). These mice subsequently show disability of gait, eating and drinking and die within some weeks, usually at 14-16 week of age. The transgenic mice carrying the human SOD1 with the glycine93 to alanine mutated were originally obtained from The Jackson Laboratory (http://www.jax.org), Bar Harbor, ME; Strain B6SJL-TgN (SOD1-G93A) 1Gur). Transgenic expression was analyzed by DNA tail tests and PCR, using specific oligonucleotides and conditions as done previously by others (see homepage Jackson Lab). In all the experiments the wild-type B6SJL-TgN (SOD1) 2Gur were included as controls.
In the single administration experiment, mice at around 13 weeks of age received a single intracerebroventricular injection of PBS or C-CDNF (3.75 μg that is equimolar to full-length CDNF 10 μg diluted in PBS) under isofluorane anesthesia. Mice were then evaluated for signs of disease and body weight changes twice a week. Evaluation was completed by a battery of behavioral tests designed to assess motor activity in the mice; the battery comprises tests e.g rotarod.
In the chronic infusion experiment, 12-week-old SOD1 mice were inserted a brain infusion cannula (connected via catheter-tubing to an Alzet osmotic minipump) to the right lateral ventricle under isoflurane anesthesia. C-CDNF (1.5 μg/24 h) was infused for 28 days. Motor behavior was evaluated with rotarod. Mice were evaluated for clinical signs and body weight changes.
Clinical scoring for SOD1 mice was done using instructions from Jackson laboratory. The mice were carefully examined 2 times a week after they were 12 weeks old. Animals were scored by lifting them gently by the base of their tails and observing them for tremors, stiffness and their ability to extend their limbs. The clinical scoring is on a scale of 1 to 5, based on ALSTDI (ALS therapy Development Institute) hind limb neurological scoring system.
In rotarod, mice were put to a rotating rod (accelerating speed 4-40 rpm/minute), (Ugo Basile, Italy). Cut off time was 4 minutes. Rotarod test was done 2 times a week after the mice were 12 weeks old.

The next data set has as its system rat 6-OHDA model of PD. The data set can be described thus: Neurorestoration study in 6-OHDA model of PD in rats. The format is in vivo. The following applies: injected intrastriatally 2 weeks after 6-OHDA lesioning; rotations at 2, 4, 6 and 8 weeks post-lesion.
For data set [3] the following is noted: rat, in vivo, sc.
Method: CDNF, C-CDNF and C-MANF were iodinated with ^125I-Na using the lactoperoxidase method. The protein in question was dissolved in 30 μl of 0.25 M phosphate buffer, pH 7.5, and mixed with ^125I-Na (1 mCi/2.8 μl; 1 mCi=37 mBq; GE Healthcare). The reaction was started by adding lactoperoxidase 10 μl of 50 μg/ml and 0.05% H2O2. The mixture was incubated at room temperature for 20 min and the reaction was stopped by adding 3 volumes of 0.1 M phosphate buffer, pH 7.5, containing 0.1 M NaI, 0.42 M NaCl, and then 25 μl of 2.5% BSA was added. Free iodine and iodinated protein were separated by gel filtration on Sephadex G-25 columns (PM10; GE Healthcare). For column equilibrium and elution, 0.1 M phosphate buffer, pH 7.5, with 1% BSA was used. The iodinated growth factors were sometimes concentrated by using YM-10 Centricon columns (Millipore). The specific activity of ^125I-labeled CDNF, C-CDNF and C-MANF was measured on the Wizard 3 1480 Automatic Gamma Counter (Perkin Elmer, Wallac) and was about 10^8 cpm/μg protein. The labelled protein were kept at 4° C. and used within 3 weeks after labelling.
^125I-CDNF, ^125I C-CDNF or ^125I C-MANF (all proteins at 10^6 cpm in 10 μl) were injected subcutaneously to adult male Wistar rats. […] Radioactivity was analyzed in different brain regions by gamma counter. […] The differences between groups were analyzed ANOVA followed by Tukey-Kramers post hoc test.

B1: KYEKTLDLASVDLRKMRVAELKQILHSWGEECRACAEKTDYVNLIQELAPKYAATHPKTEL (peptide, listed as Homo sapiens)
chain: KYEKTLDLASVDLRKMRVAELKQILHSWGEECRACAEKTDYVNLIQELAPKYAATHPKTEL
Regarding B1, the “infarction volume (rostral part of the cerebral cortex)” value in data set [1] (50 μg s.c. 30-50 minutes before dMCA occlusion and right after reperfusion, p<0.05 vs PBS) is given as “decreases”. For the same molecule, the “smaller lesions than the vehicle treated rats” value in data set [1] (50 μg s.c. before dMCA occlusion and right after reperfusion, n=8-9) is “about 50%”. Moreover, in data set [2] (4-week chronic intracerebroventricular infusion 1.5 μg/24 h, significant week 13 until week 19, p<0.01), the “motor coordination (rotarod performance)” value was “improves motor coordination”. Moreover, the “relative changes in body weight” value in data set [2] (4-week chronic intracerebroventricular infusion 1.5 μg/24 h, weeks 18 and 19, p<0.05 vs PBS) is “Significant differences”. Moreover, the “motor behavior (rotarod, latency to fall)” value in data set [2] (single intracerebroventricular injection 3.75 μg at 13 weeks, SOD1-G93A females, vs PBS) is given as “improves the motor behavior”. In data set [2] (single intracerebroventricular injection 3.75 μg at the age of 13 weeks, female animals, vs PBS), the clinical score result was “statistically significantly better clinical scores”. In the data set with rat 6-OHDA model of PD, the “cumulative amount of amphetamine-induced rotations” value is “significantly reduces”. Also, the blood-brain-barrier penetration result in data set [3] was “capable of penetrating”.
